Laboratory results taken from the Immune Epitope Database (IEDB).

Tests used:
Settings in all cases: source organism: Rickettsia bellii OSU 85-389
[1] = target: HLA-B*40:01; assay: IEDB peptide-MHC binding, purified MHC/competitive/fluorescence; filed as Kd, often an IC50 or EC50 that approximates it; ≥ and ≤ were set here for values at or beyond the usual limits of such assays
[2] = target: HLA-B*44:02; assay: as above
[3] = target: HLA-B*53:01; assay: as above
[4] = target: HLA-B*58:01; assay: as above
[5] = target: HLA-B*27:05; assay: as above
[6] = target: HLA-A*11:01; assay: as above
[7] = target: HLA-B*15:17; assay: IEDB peptide-MHC binding, purified MHC/direct/fluorescence; filed as Kd, often an IC50 or EC50 that approximates it; ≥ and ≤ were set here for values at or beyond the usual limits of such assays
[8] = target: HLA-A*02:11; assay: as above
[9] = target: HLA-B*39:01; assay: as above
[10] = target: HLA-A*26:01; assay: as above
[11] = target: HLA-A*03:01; assay: as above
[12] = target: HLA-A*02:03; assay: as above
[13] = target: HLA-A*02:01; assay: as above
[14] = target: HLA-B*46:01; assay: as above
[15] = target: HLA-A*02:16; assay: as above
[16] = target: HLA-B*15:01; assay: as above
[17] = target: HLA-A*24:03; assay: as above
[18] = target: HLA-B*27:03; assay: as above
[19] = target: HLA-B*51:01; assay: as above
[20] = target: HLA-A*02:19; assay: as above
[21] = target: HLA-A*02:12; assay: as above
[22] = target: HLA-B*57:01; assay: as above
[23] = target: HLA-A*68:02; assay: as above
[24] = target: HLA-B*18:01; assay: as above
[25] = target: HLA-A*29:02; assay: as above

EDFEIFYNL
Kd [1]: ≥ 5 µM
Kd [2]: ≥ 5 µM
Kd [3]: ≥ 5 µM
Kd [4]: ≥ 5 µM
Kd [5]: ≥ 5 µM
Kd [6]: ≥ 5 µM
Kd [7]: ≥ 20 µM
Kd [8]: ≥ 20 µM
Kd [9]: ≥ 20 µM
Kd [10]: ≥ 20 µM
Kd [11]: ≥ 20 µM
Kd [12]: ≥ 20 µM
Kd [13]: ≥ 20 µM
Kd [14]: ≥ 20 µM
Kd [15]: ≥ 20 µM
Kd [16]: ≥ 20 µM
Kd [17]: ≥ 20 µM
Kd [18]: ≥ 20 µM
Kd [19]: ≥ 20 µM
Kd [20]: ≥ 20 µM
Kd [21]: ≥ 20 µM
Kd [22]: ≥ 20 µM
Kd [23]: 0.144 µM
Kd [24]: ≥ 20 µM
Kd [25]: ≥ 20 µM
